Legend:
[1] = molecular target: BSA (control) (bovine) (UniProt P02769); assay: ELISA, BSA control wells, sFlt at 1800 ng/mL, detected with RD-1 + RD-2 anti-sFlt
[2] = molecular target: BSA (control) (bovine) (UniProt P02769); assay: ELISA, BSA control wells, sFlt at 66.67 ng/mL, detected with RD-1 + RD-2 anti-sFlt
[3] = molecular target: BSA (control) (bovine) (UniProt P02769); assay: ELISA, BSA control wells, sFlt at 600 ng/mL, detected with RD-1 + RD-2 anti-sFlt
[4] = molecular target: BSA (control) (bovine) (UniProt P02769); assay: as above; remark: listed apart in the source
[5] = molecular target: BSA (control) (bovine) (UniProt P02769); assay: ELISA, BSA control wells, sFlt at 200 ng/mL, detected with RD-1 + RD-2 anti-sFlt
[6] = molecular target: BSA (control) (bovine) (UniProt P02769); assay: ELISA, BSA control wells, sFlt at 66.67 ng/mL, detected with RD-1 + RD-2 anti-sFlt; remark: listed apart in the source
[7] = molecular target: BSA (control) (bovine) (UniProt P02769); assay: ELISA, BSA control wells, sFlt at 200 ng/mL, detected with RD-1 + RD-2 anti-sFlt; remark: listed apart in the source

Full length sFlt (soluble fms-like tyrosine kinase 1, sFlt-1), Scios Inc. Lot# 9225-89 (from UniProt P17948 27-656) (receptor), sequence (P17948 other isoform, or with tags, fused parts or gaps limits assumed): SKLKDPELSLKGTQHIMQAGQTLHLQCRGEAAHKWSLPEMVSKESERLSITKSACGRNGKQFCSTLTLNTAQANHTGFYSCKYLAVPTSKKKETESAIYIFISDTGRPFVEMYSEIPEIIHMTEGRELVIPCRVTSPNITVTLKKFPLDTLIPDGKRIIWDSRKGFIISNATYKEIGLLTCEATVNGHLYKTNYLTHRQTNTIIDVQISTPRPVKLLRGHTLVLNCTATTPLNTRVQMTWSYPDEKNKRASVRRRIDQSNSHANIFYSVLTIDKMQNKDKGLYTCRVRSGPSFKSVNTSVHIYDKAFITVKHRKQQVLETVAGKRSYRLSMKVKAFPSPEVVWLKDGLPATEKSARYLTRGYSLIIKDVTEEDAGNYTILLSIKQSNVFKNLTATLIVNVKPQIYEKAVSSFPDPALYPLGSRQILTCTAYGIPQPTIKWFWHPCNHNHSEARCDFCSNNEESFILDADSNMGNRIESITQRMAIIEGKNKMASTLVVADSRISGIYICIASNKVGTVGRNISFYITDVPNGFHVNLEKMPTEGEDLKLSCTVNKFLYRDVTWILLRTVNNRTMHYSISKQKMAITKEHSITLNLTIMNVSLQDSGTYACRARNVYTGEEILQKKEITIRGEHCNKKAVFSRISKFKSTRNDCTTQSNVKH
BSA (control) (bovine), sequence (P02769 25-607 limits assumed): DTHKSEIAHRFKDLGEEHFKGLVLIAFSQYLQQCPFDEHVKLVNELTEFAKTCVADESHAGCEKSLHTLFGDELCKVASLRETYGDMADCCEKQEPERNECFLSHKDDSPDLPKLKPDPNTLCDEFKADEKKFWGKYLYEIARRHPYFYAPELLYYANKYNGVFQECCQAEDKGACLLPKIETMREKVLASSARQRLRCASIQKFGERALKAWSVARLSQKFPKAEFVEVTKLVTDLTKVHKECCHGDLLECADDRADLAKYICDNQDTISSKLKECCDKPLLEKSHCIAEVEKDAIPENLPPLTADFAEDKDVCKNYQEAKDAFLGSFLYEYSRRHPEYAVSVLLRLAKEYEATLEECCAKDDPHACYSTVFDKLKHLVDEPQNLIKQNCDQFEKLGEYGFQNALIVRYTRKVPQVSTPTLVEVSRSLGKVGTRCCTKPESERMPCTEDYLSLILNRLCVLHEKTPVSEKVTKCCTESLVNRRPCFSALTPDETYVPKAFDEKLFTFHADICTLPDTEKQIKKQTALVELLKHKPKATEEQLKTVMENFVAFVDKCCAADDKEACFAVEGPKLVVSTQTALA
Full length sFlt (soluble fms-like tyrosine kinase 1, sFlt-1), Scios Inc. Lot# 9225-89 (from UniProt P17948 27-656), sequence (P17948 other isoform, or with tags, fused parts or gaps limits assumed): as the sequence (P17948 other isoform, or with tags, fused parts or gaps limits assumed) above

| OD at 492 nm [1] [OD] | OD at 492 nm [2] [OD] | OD at 492 nm [3] [OD] | OD at 492 nm [4] [OD] | OD at 492 nm [5] [OD] | OD at 492 nm [6] [OD] | OD at 492 nm [7] [OD] | Substance |
| --- | --- | --- | --- | --- | --- | --- | --- |
| 0.004 |  |  |  |  |  |  | Full length sFlt (soluble fms-like tyrosine kinase 1, sFlt-1), Scios Inc. Lot# 9225-89 (from UniProt P17948 27-656) |
| 0.009 | 0.02 | 0.008 | 0.006 | 0.01 | 0.003 | 0.005 | Full length sFlt (soluble fms-like tyrosine kinase 1, sFlt-1), Scios Inc. Lot# 9225-89 (from UniProt P17948 27-656) (receptor) |

Reference: patent publication US20090176264A1
